The target of test [1] is CCR7 (Homo sapiens). The test can be described thus: nanoDSF. The conditions noted are these: cited from earlier work. For orientation: Differential scanning fluorimetry follows unfolding on heating by fluorescence.
Test [2] concerns the target CCR7 N-terminus (Homo sapiens) (UniProt P32248). The test can be described thus: nanoDSF. The settings on record: cited from earlier work.
Test [3] has as its target CCR7 (Homo sapiens). The test can be described thus: nanoDSF. The settings on record: cited from earlier work. The source holds these as a separate data set.
The target of test [4] is CCR7 (Homo sapiens). The test can be described thus: NMR. The settings on record: cited from earlier work.
For test [5], the target named is T1, Recombinant human [U-15N] CCL19 (human, UniProt Q99731 22-98, uniformly 15N-labelled ([U-15N])).
T1 sequence (looked up): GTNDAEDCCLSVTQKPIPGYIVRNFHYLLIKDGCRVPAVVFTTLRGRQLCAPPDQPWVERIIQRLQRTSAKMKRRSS
The test can be described thus: NMR titration.

Drawing on article PMC9254573 (Biochemistry, 2022), this text covers Kd for three molecules.

Ends that are not written are not given here.

Chain of CCR7 N-terminus (Homo sapiens) (P32248 25-59): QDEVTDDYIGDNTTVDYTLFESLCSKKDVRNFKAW
Chain of CCL21 (O00585 24-134): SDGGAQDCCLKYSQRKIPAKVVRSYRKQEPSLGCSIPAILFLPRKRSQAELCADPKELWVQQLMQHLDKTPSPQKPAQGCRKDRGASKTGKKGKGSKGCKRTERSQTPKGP

A word on the Kd: it is a measure of binding affinity in units of concentration. Turning to CCL19 (from UniProt Q99731), the figures for the Kd (in the test with CCR7 (Homo sapiens) [1]; in test [2]; with CCR7 (Homo sapiens) [3]) were 800 nM, above 1000 nM and 300 nM, respectively.

As to CCL21 (from UniProt O00585), the Kd in the test with CCR7 (Homo sapiens) [4] was 700000 nM.

Regarding TDDYIGD-NH2 [CCR7 5-11 peptide (TDDYIGD-NH2)], the Kd in test [5] worked out at 200000 ± 100000 nM.
